Changes are numbered by the printed parent chain. One block for each binder: values may come before it.
Legend:
[1] = molecular target: T1, human TL1A extracellular domain with N-terminal HIS and FLAG tag (human, UniProt O95150 72-251); experiment: SPR run 2; supernatant on Protein A; TL1A 10 ug/mL; timepoint 44
T1 construct: whole entry named. ~70 kDa fraction purified by gel filtration
T1 sequence: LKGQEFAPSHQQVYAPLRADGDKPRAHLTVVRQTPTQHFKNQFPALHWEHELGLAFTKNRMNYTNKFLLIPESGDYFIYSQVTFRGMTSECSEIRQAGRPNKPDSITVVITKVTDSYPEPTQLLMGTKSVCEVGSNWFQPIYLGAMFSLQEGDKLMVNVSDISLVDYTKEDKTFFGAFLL
From the text: (§1) 1.5. Antibody expression and antigen binding as determined by SPR. Using a CM5 sensor chip (GE Healthcare) Protein A (Pierce) was coupled to the chip surface using an amine coupling kit (GE Healthcare). Protein A was coupled on flow cell 1 and 2 (or alternatively 3 and 4) using a BIACORE® T200. […] The amount of supernatant or purified protein (as well as the concentration) injected during the capture stage varied between runs and is specified in the header of the Tables 3-11. At the end of injection of the supernatant or purified antibody the change in response units was measured. This value was reported as Capture Level in Tables 3-11. […] The response units were measured prior to the end of the dissociation phase. […] The sensorgrams were double referenced (flow cell 2 is subtracted from flow cell 1 and a buffer blank). As there were a large number of antibody variants to screen, these were screened across different runs (Tables 3-11). […] A summary of the conditions used in each run is below:
(§2) 2.1. […] In some experiment the antibodies were purified using Protein A chromatography (See 1.4) and purified antibodies were used in BIACORE® (GE Healthcare) experiments.

[2] = molecular target: T1, human TL1A extracellular domain with …; experiment: SPR run 2; supernatant on Protein A; TL1A 10 ug/mL; timepoint 220
From the text: as §1, §2

[3] = molecular target: T1, human TL1A extracellular domain with …; experiment: SPR run 2; purified antibody on Protein A; TL1A 10 ug/mL; timepoint 44
From the text: as §1, §2

[4] = molecular target: T1, human TL1A extracellular domain with …; experiment: SPR run 2; purified antibody on Protein A; TL1A 10 ug/mL; timepoint 590
From the text: as §1, §2

[5] = molecular target: T2, human TL1A extracellular domain with N-terminal HIS and FLAG tag (human, UniProt O95150 72-251); experiment: cell-based or functional assay
T2 sequence: T1 sequence

[6] = molecular target: T2, human TL1A extracellular domain with …; experiment: SPR Run 9, antibody on Protein A, TL1A 5 ug/mL, timepoint 44
From the text: as §1, §2

[7] = molecular target: T2, human TL1A extracellular domain with …; experiment: SPR Run 9, antibody on Protein A, TL1A 5 ug/mL, timepoint 590
From the text: as §1, §2

[8] = molecular target: T3, human TL1A extracellular domain with N-terminal HIS and FLAG tag (human) (UniProt O95150); experiment: cell-based or functional assay
T3 sequence: T1 sequence

TL1A Binding Level (Early) [1]: 254 RU
TL1A Binding Level (Late) [2]: 232 RU
TL1A Binding Level (Early) [3]: 5 RU
TL1A Binding Level (Late) [4]: 6 RU
B2: 320-236 (antibody, human IgG1, name in Kabat numbering, V domains shown)
VH: QVQLVQSGAEVKKPGASVKVSCKASGYTFTSYDINWVRQAPGQGLEWMGWLNPNSGNTGYAQKFQGRVTMTADRSTSTAYMELSSLRSEDTAVYYCAREVPETAAFEYWGQGTLVTVSS
VL: QSVLTQPPSVSGAPGQRVTISCTSSSSHIGAGLGVHWYQQLPGTAPKLLIEGYYNRPSGVPDRFSGSKSGTSASLTITGLLPEDEGDYYCQSYDGTLSALFGGGTKLTVLG
notes: human IgG1, lambda

TL1A Binding Level (Early) [1]: 239 RU
TL1A Binding Level (Late) [2]: 218 RU
TL1A Binding Level (Early) [3]: 92 RU
TL1A Binding Level (Late) [4]: 80 RU
B3: 320-218 (antibody, human IgG1, name in Kabat numbering, V domains shown)
VH: B2 VH
VL: B2 VL with S26Q, H28D
notes: human IgG1, lambda

Antibody IC50, TL1A induced caspase potency assay in TF-1 cells [5]: 0.002 µg/mL
Fold improvement over 320-179, TL1A induced caspase potency assay in TF-1 cells [5]: 10 fold
TL1A Binding Level (Early) [6]: 121 RU
TL1A Binding Level (Late) [7]: 120 RU
B5: 320-601 (antibody, human IgG1, name in Kabat numbering, V domains shown)
VH: B2 VH with N57Y
VL: B2 VL with H28D, Y93F
notes: full-length human IgG1, lambda

TL1A Binding Level (Early) [1]: 240 RU
TL1A Binding Level (Late) [2]: 221 RU
TL1A Binding Level (Early) [3]: 10 RU
TL1A Binding Level (Late) [4]: 8 RU
B6: 320-237 (antibody, human IgG1, name in Kabat numbering, V domains shown)
VH: B2 VH
VL: B2 VL with H28K
notes: human IgG1, lambda

Antibody IC50, TL1A induced caspase potency assay in TF-1 cells [5]: 0.005 µg/mL
Fold improvement over 320-179, TL1A induced caspase potency assay in TF-1 cells [5]: 8 fold
TL1A Binding Level (Early) [6]: 125 RU
TL1A Binding Level (Late) [7]: 127 RU
B9: 320-611 (antibody, human IgG1, name in Kabat numbering, V domains shown)
VH: B2 VH with N57Y
VL: B2 VL with H28D, Y93W, G95K
notes: as for B5

TL1A Binding Level (Early) [6]: 122 RU
TL1A Binding Level (Late) [7]: 111 RU
B11: 320-614 (antibody, human IgG1, name in Kabat numbering, V domains shown)
VH: B2 VH with N57Y
VL: B2 VL with H28D, G95K
notes: as for B5

TL1A Binding Level (Early) [1]: 255 RU
TL1A Binding Level (Late) [2]: 235 RU
TL1A Binding Level (Early) [3]: 48 RU
TL1A Binding Level (Late) [4]: 16 RU
B13: 320-233 (antibody, human IgG1, name in Kabat numbering, V domains shown)
VH: B2 VH
VL: B2 VL with H28A
notes: human IgG1, lambda

TL1A Binding Level (Early) [6]: 113 RU
TL1A Binding Level (Late) [7]: 108 RU
B15: 320-615 (antibody, human IgG1, name in Kabat numbering, V domains shown)
VH: B2 VH with N57Y
VL: B2 VL with H28D, G95Y
notes: as for B5

TL1A Binding Level (Early) [1]: 225 RU
TL1A Binding Level (Late) [2]: 207 RU
TL1A Binding Level (Early) [3]: 99 RU
TL1A Binding Level (Late) [4]: 89 RU
B16: 320-221 (antibody, human IgG1, name in Kabat numbering, V domains shown)
VH: B2 VH
VL: B2 VL with S26K, H28D
notes: human IgG1, lambda

Antibody IC50, TL1A induced caspase potency assay in TF-1 cells [5]: 0.01 µg/mL
Fold improvement over 320-179, TL1A induced caspase potency assay in TF-1 cells [5]: 4 fold
TL1A Binding Level (Early) [6]: 135 RU
TL1A Binding Level (Late) [7]: 131 RU
B18: 320-613 (antibody, human IgG1, name in Kabat numbering, V domains shown)
VH: B2 VH with N57Y
VL: B2 VL with H28D, Y93W, G95Y
notes: as for B5

TL1A Binding Level (Early) [6]: 120 RU
TL1A Binding Level (Late) [7]: 112 RU
B19: 320-616 (antibody, human IgG1, name in Kabat numbering, V domains shown)
VH: B2 VH with N57Y
VL: B2 VL with H28D, G95A
notes: as for B5

TL1A Binding Level (Early) [6]: 125 RU
TL1A Binding Level (Late) [7]: 120 RU
B20: 320-605 (antibody, human IgG1, name in Kabat numbering, V domains shown)
VH: B2 VH with N57Y
VL: B2 VL with H28D, G32A, Y93F
notes: as for B5

TL1A Binding Level (Early) [6]: 126 RU
TL1A Binding Level (Late) [7]: 120 RU
B21: 320-612 (antibody, human IgG1, name in Kabat numbering, V domains shown)
VH: B2 VH
VL: B2 VL with H28D, Y93W, G95Y
notes: as for B5

Further lines, the binder ahead of its results:

B1: 320-193 (antibody, human IgG1, name in Kabat numbering, V domains shown)
VH: B2 VH
VL: B2 VL with T23S, H28D
notes: human IgG1, lambda
TL1A Binding Level (Early) [1]: 249 RU
TL1A Binding Level (Late) [2]: 227 RU
TL1A Binding Level (Early) [3]: 103 RU
TL1A Binding Level (Late) [4]: 91 RU

B4: 320-199 (antibody, human IgG1, name in Kabat numbering, V domains shown)
VH: B2 VH
VL: B2 VL with T23W, H28D
notes: human IgG1, lambda
TL1A Binding Level (Early) [1]: 251 RU
TL1A Binding Level (Late) [2]: 233 RU
TL1A Binding Level (Early) [3]: 97 RU
TL1A Binding Level (Late) [4]: 85 RU

B7: 320-197 (antibody, human IgG1, name in Kabat numbering, V domains shown)
VH: B2 VH
VL: B2 VL with T23K, H28D
notes: human IgG1, lambda
TL1A Binding Level (Early) [1]: 255 RU
TL1A Binding Level (Late) [2]: 232 RU
TL1A Binding Level (Early) [3]: 105 RU
TL1A Binding Level (Late) [4]: 94 RU

B8: 320-213 (antibody, human IgG1, name in Kabat numbering, V domains shown)
VH: B2 VH
VL: B2 VL with S25K, H28D
notes: human IgG1, lambda
Antibody IC50, TL1A induced caspase potency assay in TF-1 cells [8]: 0.07 µg/mL
Fold improvement over 320-179, TL1A induced caspase potency assay in TF-1 cells [8]: 0 fold
TL1A Binding Level (Early) [1]: 218 RU
TL1A Binding Level (Late) [2]: 194 RU
TL1A Binding Level (Early) [3]: 79 RU
TL1A Binding Level (Late) [4]: 65 RU

B10: 320-211 (antibody, human IgG1, name in Kabat numbering, V domains shown)
VH: B2 VH
VL: B2 VL with S25D, H28D
notes: human IgG1, lambda
Antibody IC50, TL1A induced caspase potency assay in TF-1 cells [8]: 0.01 µg/mL
Fold improvement over 320-179, TL1A induced caspase potency assay in TF-1 cells [8]: 3 fold
TL1A Binding Level (Early) [1]: 206 RU
TL1A Binding Level (Late) [2]: 164 RU
TL1A Binding Level (Early) [3]: 80 RU
TL1A Binding Level (Late) [4]: 64 RU

B12: 320-194 (antibody, human IgG1, name in Kabat numbering, V domains shown)
VH: B2 VH
VL: B2 VL with T23Q, H28D
notes: human IgG1, lambda
TL1A Binding Level (Early) [1]: 247 RU
TL1A Binding Level (Late) [2]: 226 RU
TL1A Binding Level (Early) [3]: 76 RU
TL1A Binding Level (Late) [4]: 64 RU

B14: 320-201 (antibody, human IgG1, name in Kabat numbering, V domains shown)
VH: B2 VH
VL: B2 VL with S24A, H28D
notes: human IgG1, lambda
Antibody IC50, TL1A induced caspase potency assay in TF-1 cells [8]: 0.005 µg/mL
Fold improvement over 320-179, TL1A induced caspase potency assay in TF-1 cells [8]: 2 fold
TL1A Binding Level (Early) [1]: 274 RU
TL1A Binding Level (Late) [2]: 252 RU
TL1A Binding Level (Early) [3]: 73 RU
TL1A Binding Level (Late) [4]: 57 RU

B17: 320-205 (antibody, human IgG1, name in Kabat numbering, V domains shown)
VH: B2 VH
VL: B2 VL with S24K, H28D
notes: human IgG1, lambda
Antibody IC50, TL1A induced caspase potency assay in TF-1 cells [8]: 0.02 µg/mL
Fold improvement over 320-179, TL1A induced caspase potency assay in TF-1 cells [8]: 2 fold
TL1A Binding Level (Early) [1]: 290 RU
TL1A Binding Level (Late) [2]: 271 RU
TL1A Binding Level (Early) [3]: 70 RU
TL1A Binding Level (Late) [4]: 51 RU

B22: 320-203 (antibody, human IgG1, name in Kabat numbering, V domains shown)
VH: B2 VH
VL: B2 VL with S24D, H28D
notes: human IgG1, lambda
TL1A Binding Level (Early) [1]: 61 RU
TL1A Binding Level (Late) [2]: 24 RU
TL1A Binding Level (Early) [3]: 65 RU
TL1A Binding Level (Late) [4]: 35 RU
